{
  "source": "patent US20200368361A1",
  "about": "(Regeneron, published 2020)",
  "binders": {"B1": {"name": "H2aM21229N (antibody, V domains shown)", "VH": "EVQLVESGGGLVKPGGSLRLSCAASGFTFSRYSMNWVRQAPGKGLEWVSSISSSSSYIYYGDTVKGRFTISRDNAKKSLYLQMNSLRAEDTAVYYCVRDRGQLVLYFDYWGQGTLVTVSS", "VL": "DIQMTQSPASLSTSIRDRVTITCRASLSISSFLNWFQQRPGKAPKLLIYVASNLQSGVPSRFSDSGSGTDFTLTISSLQPEDFATYYCQQNYSTPPITFGQGTRLEIK"}, "B2": {"name": "H1H27747P-N297Q (antibody, V domains shown)", "VH": "QVQLVESGGAVVQPGRSLRLSCAASGFTFSYYGMHWVRQAPGKGLEWVAVISYDGSKKYYADSVKGRFTISRDNSKNTLYLQMNSLRAEDTAVYYCAKDLTVDFYYGMDVWGQGTTVTVSS", "VL": "DIQMTQSPSSVSASVGDRVTITCRASQGISSWLAWYQQKPGKAPKLLIYATSSLQSGAPSRFSGSGSGTDFTLTISSLQPEDFATYFCQQANSFPYTFGQGTKLEIKR"}, "B3": {"name": "H1H27754P-N297Q (antibody, V domains shown)", "VH": "EVQLVESGGGLVQPGGSLRLSCAASGFTFRTYAMTWVRQAPGKGLDWVSAITGDGGNTYYADSVKGRFTISRDNSKNTLYLQMNSLRAEDTAIYYCAKDQRFSFALYYFDYWGQGTLVTVSS", "VL": "B2 VL with K42N, T51A, S52F, A58V, F87Y, S93N, Y96W, L104V"}, "B4": {"name": "H1H27761P2-N297Q (antibody, V domains shown)", "VH": "EVQLVESGGDLVQPGGSLRLSCSASGFTFNIYAMSWVRQAPGKGLEWVSGISGSGGSTYYADSVKGRFTISRDNSKNTLYFQMNSLRVEDTAVYYCAKKISSSSYYYYAMDVWGQGTTVTVSS", "VL": "not shown"}, "B5": {"name": "H2aM25685N (antibody, V domains shown)", "VH": "QVQLVQSGAEVREPGASVKLSCKVSGYTLTELSIHWVRQAPGKGLEWMGGFDPEEGETVYAQKFRGRVTLTEDISPDTAYMELSSLTSEDTAVYYCATPRYCNNGICYDYWGQGTLITVSS", "VL": "not shown"}, "B6": {"name": "H2aM21228N (antibody, V domains shown)", "VH": "VQLVESGGGLVQPGGSLRLSCAASGFTFSDHYMDWVRQAPGKGLEWVGRTRNKANSHTTEYAASVSGRFTISRDDSKNSLYLQMNSLKTEDTAVYYCTRAGIIGTLFDYWGQGTLVTVSS", "VL": "not shown"}, "B7": {"name": "H1H27756P-N297Q (antibody, V domains shown)", "VH": "QVQLVESGGGVVQPGRSLRLSCAASGFTFSNYDMHWVRQAPGKGLEWMAVISYDGINKYYADSVKGRFTISRDNSKNTLYLQMNSLRAEDTAVYYCAKGTYSWYFDLWGRGTLVTVSS", "VL": "not shown"}, "B8": {"name": "H1M21231N (antibody, V domains shown)", "VH": "EVQLVESGGGLVQPGGSLRLSCAASGFTFSDHYMDWVRQAPGKGLEWVGRTRNKANSHTTEYTASVTGRFTISRDDSRNSLYLQMNSLKTEDTAVYYCVRAGIIGTLFDYWGQGTLVTVSS", "VL": "DIQMTQFPSSLSASVGDRVTITCRASQSISSFLNWFQQKPGKAPKFLIYAASSLQSGVPSRFSGSGSGTDFTLTISSLQPEDFATYYCQQSYSSPPITFGQGTRLEIKR"}, "B9": {"name": "H2aM21235N (antibody, V domains shown)", "VH": "B8 VH with H58Y, T63A, T67S, R78K, V99T", "VL": "B8 VL with F7S, S28I, S30G, S31R, F32Y, A43V, F46L, S56R, S93N, S94T"}, "B10": {"name": "H2aM21227N (antibody, V domains shown)", "VH": "QVQLVQSGAEVKKPGASVKVSCKVSGYTLTELSIHWVRQVPGKGLEWMGGFDPEEGETIFAQEFRDRVTLTEDTSPDTAYMELSSLKSEDAAVYYCTTPRYCNNGICYDYWGQGTLVTVSS", "VL": "B8 VL with F7S, S31N, F32Y, F36Y, F46L, A50T, P80T, S94N, P95F"}, "B11": {"name": "H2aM25700N (antibody, V domains shown)", "VH": "B5 VH with A9S, R12K, E13K, L20V, E55D, V59I, L70M, T87R, I117V", "VL": "B8 VL with F7S, V15I, F32Y, F36Y, K45M, F46L, P80T, S94T"}, "B12": {"name": "H2bM21234N (antibody, V domains shown)", "VH": "QVQLQESGPGLVKPSETLSLTCTVTGGSISRNYWSWIRQPPGKGLEWIGYIYYSGSIDYNPSLKSRVTISVDTSKNQFSLKLSSMTAADTAVYYCARDRWNWKYGMDVWGQGTTVIVSS", "VL": "EIVLTQSPGTLSLSPGERATLSCRASQTVRNNYLAWYHQKPGQAPRLLIYGASSRATGIPDRFSGSGSGTDFTLTISRLEPEDFTVYYCHQYGNSPWTFGQGTKMEIKR"}, "B13": {"name": "H1H21234N-N297Q (antibody, V domains shown)", "VH": "B12 VH", "VL": "B12 VL"}, "B14": {"name": "H2aM25695N (antibody, V domains shown)", "VH": "B12 VH with D58N, T73M, S83N, M85V", "VL": "B12 VL with N32S, T85A, H90Q, N94S, P96Y"}, "B15": {"name": "H1H27759P2-N297Q (antibody, V domains shown)", "VH": "EVQLVESGGGFVQPGGSLRLSCAASGFTFSSYAMSWVRQAPGKGLEWVSAISGTGSNTYYADSVKGRFTISRDNSKNTLYLQMNSLRAEDTAVYYCAKDRVTTVTYYFDYWGQGTLVTVSS", "VL": "not shown"}, "B16": {"name": "H1H27760P2-N297Q (antibody, V domains shown)", "VH": "EVQLVESGGGLVQPGRSLRLSCAASGFTFDAYAMHWVRQAPGKGLEWVSGISWNSGSIGYADSVKGRFTISRDNAKNSLYLQMNSLREEDTALYYCAKDKILELYYYGMDVWGQGTTVTVSS", "VL": "not shown"}, "B17": {"name": "H1H27751P-N297Q (antibody, V domains shown)", "VH": "EVQLVESGGGLVQPGGSLRLSCAASGFTFSNYAMHWVRQAPGKGLEYVSAISSNGGSTYYADSVKGRITISRDNSKNTLYLQMGSLRAEDMAVYYCARGRPYYYYFGMDVWGQGTTVTVSS", "VL": "not shown"}, "B18": {"name": "H1H27762P2-N297Q (antibody, V domains shown)", "VH": "QVQLVQSGAEVKKPGSSVKVSCKASGGTFSRYDISWVRQAPGQGLEWMGGIIPIFGTSNYAQKFQGRVTITTDESTSTVYMELSSLRSEDTAVYYCARGGRYGWFDPWGQGTLVTVSS", "VL": "not shown"}, "B19": {"name": "H1H27739P-N297Q (antibody, V domains shown)", "VH": "EVQLVESGGGLVQPGGSLRLSCTASGFTFSSYAMSWVRQAPGKGLEWVSAISGTGSSTYFTDSVKGRFAISRDNSKNTLYLQMNSLRAEDTAVYYCAKDGEWLSTVTLFDYWGQGTLVTVSS", "VL": "EIVMTQSPATLSVSPGERATLSCRASQSVSSNLAWYQQKPGQAPRLLIYGASTRATGIPARFSGSGSGTDFTLTISSLQSEDFALYYCQQYFIWPPHPTFGPGTKVDIKR"}, "B20": {"name": "H1H27734P-N297Q (antibody, V domains shown)", "VH": "EVQLVESRGGLVQPGGSLRLSCAASGFTFSSYAMSWVRQAPGKGLEWVSAISGSGGSTFYADSVKGRFTISRDNSKNTVYLQMNSLRAEDTAVYYCAKALVLRFLEWLGDYWGQGTLVTVSS", "VL": "DIQMTQSPSTLSASVGDRVTITCRASQSISSWLAWFQQKPGKAPKLLIYKASSLESGVPSRFSGSGSGTEFTLTISSLQPDDFATYYCQQYKSYWTFGQGTKVEIKR"}, "B21": {"name": "H1H27766P2-N297Q (antibody, V domains shown)", "VH": "EVQLVESGGGLVQPGGSLRLSCAASGFTFSSFAMSWVRQAPGKELEWVSSISGRGGSTYYADSVRGRFTISRDNSKITLYLQMNSLRAEDTAVYYCAKDIVFRYTSSAYWYFDLWGRGTLVTVSS", "VL": "not shown"}},
  "note": "Substitutions are numbered along the chain they refer to. Names may count otherwise.",
  "data": [
    {"target": "T1, human MSR1 with a C-terminal Myc tag expressed on HEK293.Myc.hMSR1 cells (human, UniProt P21757 1-451)", "T1 sequence (looked up)": "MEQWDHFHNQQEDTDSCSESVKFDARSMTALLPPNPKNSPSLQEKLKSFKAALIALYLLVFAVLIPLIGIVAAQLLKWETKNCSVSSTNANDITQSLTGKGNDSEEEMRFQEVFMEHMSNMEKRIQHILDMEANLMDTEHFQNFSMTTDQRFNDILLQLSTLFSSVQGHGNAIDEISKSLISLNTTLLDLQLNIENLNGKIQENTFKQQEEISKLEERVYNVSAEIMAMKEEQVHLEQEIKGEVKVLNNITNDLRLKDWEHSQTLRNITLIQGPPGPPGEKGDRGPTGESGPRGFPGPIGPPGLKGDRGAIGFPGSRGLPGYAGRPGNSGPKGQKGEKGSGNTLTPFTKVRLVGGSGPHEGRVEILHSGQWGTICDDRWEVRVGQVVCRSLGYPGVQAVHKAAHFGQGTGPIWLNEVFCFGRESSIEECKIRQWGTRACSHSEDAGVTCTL", "experiment": "cell-based or functional assay", "units": {"IC50 of inhibition of Dil-Oxidized LDL uptake": "nM", "IC50 of inhibition of Dil-Acetylated LDL uptake": "nM", "% Inhibition of Dil-Acetylated LDL uptake": "%", "% Inhibition of Dil-Oxidized LDL uptake": "%"}, "values": [
      {"binder": "B1", "IC50 of inhibition of Dil-Oxidized LDL uptake": "> 100"},
      {"binder": "B2", "IC50 of inhibition of Dil-Acetylated LDL uptake": "> 100", "IC50 of inhibition of Dil-Oxidized LDL uptake": "> 100"},
      {"binder": "B3", "IC50 of inhibition of Dil-Acetylated LDL uptake": 1.8, "IC50 of inhibition of Dil-Oxidized LDL uptake": 4.6},
      {"binder": "B4", "IC50 of inhibition of Dil-Acetylated LDL uptake": "> 100", "IC50 of inhibition of Dil-Oxidized LDL uptake": 9.5},
      {"binder": "B5", "% Inhibition of Dil-Acetylated LDL uptake": 22, "% Inhibition of Dil-Oxidized LDL uptake": 43, "IC50 of inhibition of Dil-Acetylated LDL uptake": "> 100", "IC50 of inhibition of Dil-Oxidized LDL uptake": "> 100"},
      {"binder": "B6", "IC50 of inhibition of Dil-Acetylated LDL uptake": "> 100", "IC50 of inhibition of Dil-Oxidized LDL uptake": 3.1},
      {"binder": "B7", "IC50 of inhibition of Dil-Acetylated LDL uptake": "> 100"},
      {"binder": "B8", "IC50 of inhibition of Dil-Acetylated LDL uptake": "> 20", "IC50 of inhibition of Dil-Oxidized LDL uptake": 3.7},
      {"binder": "B9", "IC50 of inhibition of Dil-Acetylated LDL uptake": "> 100"},
      {"binder": "B10", "IC50 of inhibition of Dil-Acetylated LDL uptake": 3.7, "IC50 of inhibition of Dil-Oxidized LDL uptake": 3.1},
      {"binder": "B11", "% Inhibition of Dil-Acetylated LDL uptake": 79, "% Inhibition of Dil-Oxidized LDL uptake": 91, "IC50 of inhibition of Dil-Acetylated LDL uptake": 2.4},
      {"binder": "B12", "IC50 of inhibition of Dil-Acetylated LDL uptake": 1.8, "IC50 of inhibition of Dil-Oxidized LDL uptake": 4.5},
      {"binder": "B13", "IC50 of inhibition of Dil-Acetylated LDL uptake": 1.3, "IC50 of inhibition of Dil-Oxidized LDL uptake": 6.1},
      {"binder": "B14", "IC50 of inhibition of Dil-Acetylated LDL uptake": "> 170", "IC50 of inhibition of Dil-Oxidized LDL uptake": "> 16"},
      {"binder": "B15", "IC50 of inhibition of Dil-Acetylated LDL uptake": "> 100", "IC50 of inhibition of Dil-Oxidized LDL uptake": "> 10"},
      {"binder": "B16", "IC50 of inhibition of Dil-Acetylated LDL uptake": 2.6, "IC50 of inhibition of Dil-Oxidized LDL uptake": 4.9},
      {"binder": "B17", "IC50 of inhibition of Dil-Acetylated LDL uptake": 1.6, "IC50 of inhibition of Dil-Oxidized LDL uptake": 2.9},
      {"binder": "B18", "IC50 of inhibition of Dil-Acetylated LDL uptake": 2.9, "IC50 of inhibition of Dil-Oxidized LDL uptake": 4},
      {"binder": "B19", "IC50 of inhibition of Dil-Oxidized LDL uptake": "> 100"},
      {"binder": "B20", "IC50 of inhibition of Dil-Oxidized LDL uptake": 5.5},
      {"binder": "B21", "IC50 of inhibition of Dil-Acetylated LDL uptake": 3.5, "IC50 of inhibition of Dil-Oxidized LDL uptake": 3.7}
    ]}
  ]
}
